Assay results as given in patent US20220177587A1, “METHODS AND USES OF VARIANT CD80 FUSION PROTEINS AND RELATED CONSTRUCTS” (Alpine Immune Sciences, Inc., priority 2018, published 2022).
Numbering of substitutions follows the chain as printed. Names and notes keep the numbering of the source. Values joined by “and” are separate entries in the source; they are usually repeats but may differ in a detail not shown here. Identical values can stand only once.

B1: I118T, C128R (protein)
chain: VIHVTKEVKEVATLSCGHNVSVEELAQTRIYWQKEKKMVLTMMSGDMNIWPEYKNRTIFDITNNLSIVILALRPSDEGTYECVVLKYEKDAFKREHLAEVTLSVKADFPTPSISDFETPTSNIRRIIRSTSGGFPEPHLSWLENGEELNAINTTVSQDPETELYAVSSKLDFNMTTNHSFMCLIKYGHLRVNQTFNWNTTKQEHFPDN
modifications: CD80 v118 ECD
B2: S129P, T154A (protein)
chain: B1 chain with T118I, R128C, S129P, T154A
B3: Q27R, R29C, M42T, S129P, E160G (protein)
chain: B1 chain with Q27R, R29C, M42T, T118I, R128C, S129P, E160G
modifications: CD80 v119 ECD
B4: R29D, Y31L, Q33H, K36G, M38I, T41A, M43R, M47T, E81V, L85R, K89N, A91T, F92P, K93V, R94L, H18L, V68A, T130A, N149S, T154I (protein)
chain: VIHVTKEVKEVATLSCGLNVSVEELAQTDILWHKEGKIVLAMRSGDTNIWPEYKNRTIFDITNNLSIAILALRPSDEGTYVCVVRKYENDTPVLEHLAEVTLSVKADFPTPSISDFEIPTSNIRRIICSASGGFPEPHLSWLENGEELSAINTIVSQDPETELYAVSSKLDFNMTTNHSFMCLIKYGHLRVNQTFNWNTTKQEHFPDN
B5: R29D, Y31L, Q33H, K36G, M38I, T41A, M43R, M47T, E81V, L85R, K89N, A91T, F92P, K93V, R94L, I118T, T130A, N149S (protein)
chain: B4 chain with L18H, A68V, I118T, I154T
B6: H18L, R29D, Y31L, Q33H, K36G, M38I, T41A, M43R, M47T, L70Q, E81V, L85R, K89N, A91T, F92P, K93V, R94L, I118V, T120S, T130A, K169E, H188D (protein)
chain: B4 chain with A68V, L70Q, I118V, T120S, S149N, I154T, K169E, H188D
B7: R29D, Y31L, Q33H, K36G, M38I, T41A, M43R, M47T, E81V, L85R, K89N, A91T, F92P, K93V, R94F, T130A, N149S, K169I (protein)
chain: B4 chain with L18H, A68V, L94F, I154T, K169I
B8: R29D, Y31L, Q33H, K36G, M38I, T41A, M43R, M47T, L85R, K89N, A91T, F92P, K93V, R94L, I118V, T120S, I127T, T130A, K169E, H188D (protein)
chain: B4 chain with L18H, A68V, V81E, I118V, T120S, I127T, S149N, I154T, K169E, H188D
B9: R29D, Y31L, Q33H, K36G, M38I, T41A, M43R, M47T, E81V, L85R, K89N, A91T, F92P, K93V, R94L, V22A, I118T, T130A, N149S (protein)
chain: B4 chain with L18H, V22A, A68V, I118T, I154T
B10: R29D, Y31L, Q33H, K36G, M38I, T41A, M43R, M47T, E81V, L85R, K89N, A91T, F92P, K93V, R94L, F108L, I118V, T120S, T130A, K169E, H188D (protein)
chain: B4 chain with L18H, A68V, F108L, I118V, T120S, S149N, I154T, K169E, H188D
B11: R29D, Y31L, Q33H, K36G, M38I, T41A, M43R, M47T, L70Q, E81V, L85R, K89N, A91T, F92P, K93V, R94L, T130A, H188D (protein)
chain: B4 chain with L18H, A68V, L70Q, S149N, I154T, H188D
B12: R29D, Y31L, Q33H, K36G, M38I, T41A, M43R, M47T, L70Q, E81V, K89N, A91T, F92P, K93V, R94L, I118V, T120S, I127T, T130A (protein)
chain: B4 chain with L18H, A68V, L70Q, R85L, I118V, T120S, I127T, S149N, I154T
B13: R29D, Y31L, Q33H, K36G, M38I, T41A, M43R, M47T, L70Q, E81V, L85R, K89N, A91T, F92P, K93V, R94L, I118V, T120S, I127T, T130A, K169E (protein)
chain: B4 chain with L18H, A68V, L70Q, I118V, T120S, I127T, S149N, I154T, K169E
B14: R29D, Y31L, Q33H, K36G, M38I, T41A, M43R, M47T, L70Q, E81V, L85R, K89N, A91T, F92P, K93V, R94L, I118V, T120S, T130A, N149D, K169E, H188D (protein)
chain: B4 chain with L18H, A68V, L70Q, I118V, T120S, S149D, I154T, K169E, H188D
B15: R29D, I30V, Y31L, Q33H, K36G, M38I, T41A, M43R, M47T, E81V, L85R, K89N, A91T, F92P, K93V, R94L, I118V, T120S, I127T, T130A, H188D (protein)
chain: B4 chain with L18H, I30V, A68V, I118V, T120S, I127T, S149N, I154T, H188D
B16: R29D, Y31L, Q33H, K36G, M38I, T41A, M43R, M47T, E81V, L85R, K89N, A91T, F92P, K93V, R94L, I118T, T130A, N149S, K169I (protein)
chain: B4 chain with L18H, A68V, I118T, I154T, K169I
B17: R29D, Y31L, Q33H, K36G, M38I, T41A, M43R, M47T, E81V, L85R, K89N, A91T, F92P, K93V, R94L, I118V, T120S, I127T, C128Y, T130A, H188D (protein)
chain: B4 chain with L18H, A68V, I118V, T120S, I127T, C128Y, S149N, I154T, H188D
B18: H18R, R29D, Y31L, Q33H, K36G, K37E, M38I, T41A, M43R, M47T, L70Q, E81V, L85R, K89N, A91T, F92P, K93V, R94L, I118V, T120S, T130A, K169E, H188D (protein)
chain: B4 chain with L18R, K37E, A68V, L70Q, I118V, T120S, S149N, I154T, K169E, H188D
B19: R29D, Y31L, Q33H, K36G, M38I, T41A, M43R, M47T, E81V, L85R, K89N, A91T, F92P, K93V, R94L, I118T, T130A, N149S, K169I, Q193L (protein)
chain: B4 chain with L18H, A68V, I118T, I154T, K169I, Q193L
B20: R29D, Y31L, Q33H, K36G, M38I, T41A, M43R, M47T, N48D, F59L, E81V, L85R, K89N, A91T, F92P, K93V, R94L, I118V, T120S, I127T, T130A, H188D (protein)
chain: B4 chain with L18H, N48D, F59L, A68V, I118V, T120S, I127T, S149N, I154T, H188D
B21: R29D, Y31L, Q33H, K36G, M38I, T41A, M43R, M47T, L70Q, E81V, L85R, K89N, A91T, F92P, K93V, R94L, I118V, T120S, I127T, T130A, E143G, K169E, M174V, H188D (protein)
chain: VIHVTKEVKEVATLSCGHNVSVEELAQTDILWHKEGKIVLAMRSGDTNIWPEYKNRTIFDITNNLSIVIQALRPSDEGTYVCVVRKYENDTPVLEHLAEVTLSVKADFPTPSISDFEVPSSNIRRITCSASGGFPEPHLSWLGNGEELNAINTTVSQDPETELYAVSSELDFNVTTNHSFMCLIKYGDLRVNQTFNWNTTKQEHFPDN
B22: T13R/C16R/L70Q/A71D: variant CD80 IgV-Fc, IgV SEQ ID NO:155 (protein)
chain: VIHVTKEVKEVARLSRGHNVSVEELAQTRIYWQKEKKMVLTMMSGDMNIWPEYKNRTIFDITNNLSIVIQDLRPSDEGTYECVVLKYEKDAFKREHLAEVTLSVKAD
B23: T57I: variant CD80 IgV-Fc, IgV SEQ ID NO:156 (protein)
chain: B22 chain with R13T, R16C, T57I, Q70L, D71A

System: human pan T cells
Assay: Anti-CD3 coimmobilization assay, IFN-gamma
Assay type: cell-based
Conditions: Table E34; culture supernatant, 3 days
How it was run: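 IFN-gamma in 3-day culture supernatants, quantified by ELISA, reflects costimulation. Human pan T cells or BC3 clone (100,000/well, Ex-Vivo 15) were placed on wells pre-adsorbed overnight with rCD80.Fc variants (1–80 nM) together with anti-CD3 OKT3 (1 nM or 4 nM), unbound protein removed.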

| Molecule | Anti-CD3 IFN-gamma Coimmobilization Assay |
| --- | --- |
| B1 | 122 pg/mL |
| B2 | 156 pg/mL |
| B3 | 139 pg/mL |
| B4 | 132 pg/mL |
| B5 | 89 pg/mL |
| B6 | 157 pg/mL |
| B7 | 114 pg/mL |
| B8 | 231 pg/mL |
| B9 | 124 pg/mL |
| B10 | 165 pg/mL |
| B11 | 213 pg/mL |
| B12 | 226 pg/mL |
| B13 | 203 pg/mL |
| B14 | 118 pg/mL |
| B15 | 127 pg/mL and 237 pg/mL |
| B16 | 101 pg/mL |
| B17 | 278 pg/mL |
| B18 | 305 pg/mL |
| B19 | 130 pg/mL |
| B20 | 230 pg/mL |
| B21 | 291 pg/mL |

Target: CD28 (Homo sapiens, UniProt P10747)
Assay: Jurkat/IL2 reporter assay: blockade of CD28 costimulation (plate-bound anti-CD3/CD86-Fc)
Assay type: cell-based
Set-up: host or cells: Jurkat cells expressing an IL-2-luciferase reporter
Conditions: Table E5; protein diluted to 40 nM before mixing with cells; 5 hours
Protocol: The day before the assay, the assay plate was prepared. […] The plate was incubated overnight at 4° C. to allow the antibody and CD86-Fc protein to adhere to the surface of the plate. The next day, the wells of the assay plate were washed twice with 150 μL PBS prior to the assay.
Jurkat effector cells expressing IL-2-luciferase reporter were counted and resuspended in assay buffer to a concentration of 2×10^6 cells/mL. 60 μL of the Jurkat cell suspension were then added to the wells containing the CD80-Fc fusion molecules or controls. The cells and CD80 proteins were incubated at room temperature for 15 minutes and then 100 μL of the cell/CD80 protein mixture were transferred/well of the prepared anti-CD3/CD86-Fc assay plate.
The assay plate was briefly spun down (10 seconds at 1200 RPM) and incubated at 37° C. for 5 hours. After the 5 hour incubation, the plate was removed and equilibrated to room temperature for 15 minutes. 100 μL of Bio-Glo (Promega) were added/well of the assay plate, which was then placed on an orbital shaker for 10 minutes. Luminescence was measured with a 1 second per well integration time using a BioTek Cytation 3 luminometer.

| Molecule | Average Relative Luminescence Units |
| --- | --- |
| B22 | 3204 Relative Luminescence Units |
| B23 | 1463 Relative Luminescence Units |
